The source of these data is doi:10.1101/2024.05.21.594841 (bioRxiv, 2024).

Where two headings read alike, the source gives them in different places.

Holding throughout (experiment): split reporter
The target of test [1] is T1, Mpd1p (S. cerevisiae, UniProt Q12404 22-318).
T1 sequence: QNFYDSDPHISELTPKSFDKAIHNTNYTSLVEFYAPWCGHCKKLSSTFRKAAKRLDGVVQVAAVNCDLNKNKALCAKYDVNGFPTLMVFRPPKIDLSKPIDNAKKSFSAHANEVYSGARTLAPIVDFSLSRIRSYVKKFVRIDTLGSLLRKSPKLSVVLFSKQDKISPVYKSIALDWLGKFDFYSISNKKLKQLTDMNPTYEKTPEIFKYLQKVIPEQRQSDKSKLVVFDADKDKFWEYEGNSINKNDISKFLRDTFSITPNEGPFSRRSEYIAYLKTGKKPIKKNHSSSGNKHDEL

The target of test [2] is T2, Cpr5p (S. cerevisiae, UniProt P35176 23-225).
Another test has as its target T3, Sil1p (S. cerevisiae, UniProt Q08199 20-421).
T3 sequence: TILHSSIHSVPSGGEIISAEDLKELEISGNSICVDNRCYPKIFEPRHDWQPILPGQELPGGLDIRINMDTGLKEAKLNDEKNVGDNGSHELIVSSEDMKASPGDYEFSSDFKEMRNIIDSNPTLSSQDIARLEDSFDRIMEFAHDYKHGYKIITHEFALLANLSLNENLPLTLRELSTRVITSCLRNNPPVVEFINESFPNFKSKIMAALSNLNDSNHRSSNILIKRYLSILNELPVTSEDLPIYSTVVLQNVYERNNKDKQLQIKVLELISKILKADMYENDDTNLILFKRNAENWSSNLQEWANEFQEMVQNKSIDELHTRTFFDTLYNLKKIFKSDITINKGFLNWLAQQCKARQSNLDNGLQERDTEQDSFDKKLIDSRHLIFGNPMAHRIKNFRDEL

The target in test [3] is T1, Mpd1p. This is another data set of the same source.
In test [4] the target is T2, Cpr5p. This is another data set of the same source.
Test [5] has as its target T4, Yos9p (S. cerevisiae, UniProt Q99220 22-542).
T4 sequence: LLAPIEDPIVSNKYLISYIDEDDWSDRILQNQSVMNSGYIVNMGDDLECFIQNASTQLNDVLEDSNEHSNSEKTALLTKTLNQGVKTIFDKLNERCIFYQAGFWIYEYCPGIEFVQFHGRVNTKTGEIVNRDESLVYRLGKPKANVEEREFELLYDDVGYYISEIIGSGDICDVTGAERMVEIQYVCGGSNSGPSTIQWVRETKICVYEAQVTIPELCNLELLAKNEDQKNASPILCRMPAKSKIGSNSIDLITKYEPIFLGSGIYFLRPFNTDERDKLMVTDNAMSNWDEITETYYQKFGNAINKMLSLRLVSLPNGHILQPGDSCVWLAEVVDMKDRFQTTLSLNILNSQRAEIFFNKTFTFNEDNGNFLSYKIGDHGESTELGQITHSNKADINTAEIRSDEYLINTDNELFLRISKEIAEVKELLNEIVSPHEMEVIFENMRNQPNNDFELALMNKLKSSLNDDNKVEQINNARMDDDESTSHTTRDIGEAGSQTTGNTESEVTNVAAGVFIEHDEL

Another test has as its target T5, Scj1p (S. cerevisiae, UniProt P25303 22-377).
T5 sequence: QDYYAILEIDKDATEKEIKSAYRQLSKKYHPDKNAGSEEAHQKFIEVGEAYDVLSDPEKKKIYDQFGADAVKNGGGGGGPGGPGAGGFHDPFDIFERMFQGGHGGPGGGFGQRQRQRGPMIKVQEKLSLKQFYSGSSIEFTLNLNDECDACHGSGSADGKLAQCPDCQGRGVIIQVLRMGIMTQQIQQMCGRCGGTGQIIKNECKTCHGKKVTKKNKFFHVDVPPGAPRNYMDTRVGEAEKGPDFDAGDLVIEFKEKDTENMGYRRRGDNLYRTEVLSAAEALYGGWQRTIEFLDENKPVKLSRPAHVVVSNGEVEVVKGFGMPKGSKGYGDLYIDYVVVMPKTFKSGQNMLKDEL

Test [6] deals with T4, Yos9p. This is another data set of the same source.
The target in the next test is T6, Pdi1p (S. cerevisiae, UniProt P17967 29-522).
T6 sequence: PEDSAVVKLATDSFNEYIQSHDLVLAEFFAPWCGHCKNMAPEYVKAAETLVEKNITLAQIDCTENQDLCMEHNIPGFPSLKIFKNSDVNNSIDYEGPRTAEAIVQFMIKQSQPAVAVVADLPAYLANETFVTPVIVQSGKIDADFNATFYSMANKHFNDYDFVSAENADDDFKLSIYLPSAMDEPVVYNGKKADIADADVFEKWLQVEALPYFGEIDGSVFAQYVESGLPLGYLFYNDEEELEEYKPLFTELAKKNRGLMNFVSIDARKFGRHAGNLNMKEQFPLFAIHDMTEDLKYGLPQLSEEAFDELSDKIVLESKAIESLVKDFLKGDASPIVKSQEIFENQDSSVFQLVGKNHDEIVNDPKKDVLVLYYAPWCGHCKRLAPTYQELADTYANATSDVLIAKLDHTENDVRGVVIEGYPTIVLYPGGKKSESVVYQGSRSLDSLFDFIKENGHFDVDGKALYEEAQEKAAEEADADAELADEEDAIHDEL

T2 sequence (P35176 23-225): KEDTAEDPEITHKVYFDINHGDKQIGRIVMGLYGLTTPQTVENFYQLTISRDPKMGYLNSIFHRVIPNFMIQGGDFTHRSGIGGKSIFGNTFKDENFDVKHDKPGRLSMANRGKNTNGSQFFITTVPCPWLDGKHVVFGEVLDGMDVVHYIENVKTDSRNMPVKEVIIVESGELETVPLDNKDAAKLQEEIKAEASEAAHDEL

B1: Kar2p (natural protein)
chain: not shown
B1: the normalized interacting score stood at 65% in the test with Mpd1p [1]; 31% with Cpr5p [2]; 35% in the test with Sil1p; 86% with Mpd1p [3]; 78% with Cpr5p [4]; 20% with Yos9p [5]. The same molecule registered a normalized interacting score with Scj1p of 10%.

B2: Kre5p (natural protein)
chain: WTYSLRYGIPESAQVWSILVHLLGDVDNQLLTNLYPLVTGLDDEIDIQENLVALTSNVLRERYDKEDVADLLELYASLYPMGMIQHDISSNAEQDDANSSYFVLNGNRYEKPDDVFYLKSKDLTIQQKVPDVDVIQPYDVVIGTNSEAPILILYGCPTVIDSDFEEFNRNLFMEAMNGEGKFRFIWRSTCSLDGKSVEYPLTHPLEITLQNGSRMSSIPQLKKILYTVPKEILVGADNDDQLHDLEPEELRELDLRVTSLISEFYQYKKDITATLNFTKSIVNNFPLISKQLIKVSSVNKDIITSNEELNSKGFDYNMLGLYINGQNWKITSLTPYNLLTALKTEYQSLLKITNLLQELEPSKCILDSKFLLNKFSQFSLGKLQNLQPIKMDLHTIPGFSESVIYFNDIESDPQYDELVNSVQAFFDKSKFGELPEIKQNWSEIIFVIDFARLEDSEVKEALGGLVRAVNVVSQGYPQRVGLLPFSSDSDKSVVNKIYELKNSTDNLTELKSFLETMLLADGLSANAKHSKHIPVPDVFHLLDELQIDETSIIINGEIYPFRKNAWNYLIAKVIKKDTEFIRKELSNSSPKNKQISVRDLLHYKSANLRHNKYTPNYFADSVYSSVNNTALESVCSERIGYYTKNEEYNLLHTITLVDDFGSIHALKRLRNLLHTSFVGVRIRIIHVGDISDIWYQLRGSLSQKDPIGSINTFIDALKLKKVKSHTYKKSGLNQLGLHKWLPDIPLFELQKGSFIALNGRFIHLDQNEVPETEHFEAIIKREALRTIDSVFALDLLFPGFSQEIINPDLIEMISSILTRLFYQGTHIYNNGIDYTTESSLPRMDLSEFFRPNNLTMFEDGKSASIDLLLILDPLEERTQMILSLVEQFRPLKFVNIQVILMPTLELNIVPIRRIYVDDADIVKSITSEDSRSDPEVDIEMDVPNSFIVDNNYRIKKLLIELHSFSSKTVLSTGNIDGMGGVCLALVDSAGNIIDKTTTMKTFGYGQFHTDKFLKGCYIKSCDSRYTVQSFSTDGHPDFIPSDSLDILSYNPQKIAVKISEEPTHEEEYEEGRNNDTIINIFTILESGPDEEERYMQMILSILSKCPETQKVNFFILDQPFISDTLRKSCEYINSSDEMRGNVIFLNYEWPQWLRPQRFSSRRRDVSRFLFLDVLLPQNISKVLYMSPTEVPLDPFDIFQFQGLKRAPLGLFRMSGDGYWKEGYWEKMLRENNLEFYSTEPAFLVNLERFRELDAGDKYRIHYQRISTDAMSLVNIGQDLVNNLQLEVPIRFLKGSYKKKLVINDECVSEWKKKINKFASSPGDEDVPGESVSSKYQDSDNAAPLHDEL
For B2, the normalized interacting score with Cpr5p [2] turned out to be 22%; with Yos9p [6] it was 16%; in the test with Mpd1p [3], 21%; with Cpr5p [4], 59%; in the test with Yos9p [5], 64%; with Pdi1p, 23%.
